Patent US20250115669A1, “FGFR1/KLB Targeting Agonistic Antigen-Binding Proteins and Conjugates Thereof with GLP-1R Agonistic Peptides” (SANOFI, priority 2020, published 2025)
Where two headings read alike, the source gives them in different places.

Columns and labels:
[1] = target: T1, human beta-Klotho (Homo sapiens, UniProt Q86Z14); assay: SPR binding affinity and kinetics to human beta-Klotho (Biacore 8K, anti-human Fc capture)
T1 sequence (Q86Z14 1-1044): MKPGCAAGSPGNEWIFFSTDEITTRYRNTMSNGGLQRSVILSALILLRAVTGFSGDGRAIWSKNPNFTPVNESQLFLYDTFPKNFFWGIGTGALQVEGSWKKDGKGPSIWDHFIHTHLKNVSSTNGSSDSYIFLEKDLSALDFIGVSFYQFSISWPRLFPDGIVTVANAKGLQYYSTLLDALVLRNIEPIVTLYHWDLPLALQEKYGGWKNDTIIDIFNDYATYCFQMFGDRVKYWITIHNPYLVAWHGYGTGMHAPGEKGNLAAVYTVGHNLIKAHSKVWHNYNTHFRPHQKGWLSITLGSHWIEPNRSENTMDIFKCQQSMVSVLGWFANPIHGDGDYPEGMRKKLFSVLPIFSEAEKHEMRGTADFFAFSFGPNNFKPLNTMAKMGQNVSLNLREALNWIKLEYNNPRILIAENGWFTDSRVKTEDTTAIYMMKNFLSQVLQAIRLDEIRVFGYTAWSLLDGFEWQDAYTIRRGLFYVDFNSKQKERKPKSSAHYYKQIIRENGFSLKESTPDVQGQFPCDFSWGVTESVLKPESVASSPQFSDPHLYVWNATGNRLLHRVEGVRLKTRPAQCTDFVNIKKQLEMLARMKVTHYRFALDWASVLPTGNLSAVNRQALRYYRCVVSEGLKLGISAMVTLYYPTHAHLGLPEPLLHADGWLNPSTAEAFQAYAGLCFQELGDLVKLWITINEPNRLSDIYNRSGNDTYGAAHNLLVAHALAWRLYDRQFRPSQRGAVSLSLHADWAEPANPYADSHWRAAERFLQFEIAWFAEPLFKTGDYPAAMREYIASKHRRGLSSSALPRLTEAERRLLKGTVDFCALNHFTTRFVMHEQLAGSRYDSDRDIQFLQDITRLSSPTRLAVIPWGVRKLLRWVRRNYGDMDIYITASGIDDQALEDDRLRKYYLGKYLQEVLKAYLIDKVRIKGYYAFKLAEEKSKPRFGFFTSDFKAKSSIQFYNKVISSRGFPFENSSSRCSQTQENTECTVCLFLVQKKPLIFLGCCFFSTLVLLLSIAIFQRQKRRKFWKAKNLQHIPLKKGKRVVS
Method: Binding affinity and kinetics were measured on a Biacore 8K instrument (GE Healthcare). For the affinity capture of the diluted mAb sample, an anti-human Fc antibody (human antibody capture kit, GE Healthcare) was immobilized on all eight channels of a series S CM5 sensor chip (GE Healthcare) to approximately 10.000 RU. The anti-beta-Klotho antibodies were diluted into HBS-EP+ assay buffer (GE Healthcare) to 0.04 μg/mL. The antibodies were injected in the sample compartment, whereas the reference compartment was used without captured antibody. […] For the antigen inject the flow rate was adjusted to 60 μL/min with an association time of 180 sec and a dissociation time of 1800 sec. The maximum binding signal of beta-Klotho was in the range of 30 RU. At the end of each cycle an inject of regeneration solution, supplied with human antibody capture kit (GE Healthcare), supplemented with 10% non-specific binding reducer (GE Healthcare), for 1 min at 30 μL/min to remove antibody and antigen was performed. Binding kinetics data were evaluated with a 1:1 binding model using the Biacore 8K Evaluation Software version 1.1.1.7442 (GE Healthcare).
For interaction analysis with human beta-klotho, mAbs were captured via an anti-human Fc antibody immobilized on a series S CM5 sensor chip (human antibody capture kit, GE Healthcare). […] Binding kinetics data were evaluated with a 1:1 binding model using the Biacore 8K Evaluation Software version 1.1.1.7442 (GE Healthcare). For interaction analysis with Cynomolgus monkey beta-klotho, mAbs were captured via an anti-human Fc antibody immobilized on a series S CM5 sensor chip (human antibody capture kit, GE Healthcare). […] Binding kinetics data were evaluated with a 1:1 binding model using the Biacore 8K Evaluation Software version 1.1.1.7442 (GE Healthcare). Exemplary sensorgrams for the interaction are shown in FIG. 7 (human KLB) and 8 (monkey KLB), as well as in Table G.

[2] = target: T1, human beta-Klotho; assay: SPR analysis of the active fraction of stressed antibodies; type: binding; details: 21 days
Method: Analysis of the active fraction of stressed antibodies was performed by SPR using the same Fc capture assay set up as described above for the affinity determination. In this case the association and dissociation times for human beta-Klotho were set to 240 sec and 300 sec, respectively. The active fraction of the samples was calculated as the ratio of binding signal for human beta-Klotho and the Fc capture signal of the antibody, normalized to the active fraction of the unstressed control samples. Mean values from three experiments were calculated.

[3] = Capillary isoelectric focusing (cIEF); type: physicochemical
Method: Charge heterogeneity of the antibody samples was determined by capillary isoelectric focusing (cIEF) using a Maurice C device (Protein Simple). The samples were prepared by the cIEF protocol given by the manufacturer with an ampholyte mix 3-10 (Protein Simple) and peptide pl markers of 5.85 and 9.0 (Protein Simple). cIEF runs were analyzed using Compass Software v2.1.0 (Protein Simple).

[4] = Capillary gel electrophoresis (cGE); type: physicochemical
Method: Capillary Gel Electrophoresis (cGE) Purity and size heterogeneity of the samples was determined by capillary gel electrophoresis (cGE) using a CES18000 instrument (SCIEX) equipped with a pre-assembled fused silica capillary (50 μm×300 mm, SCIEX). Protein samples at 1 mg/ml were prepared using the IgG purity heterogeneity Kit (SCIEX) under non-reducing conditions according to the manufacturer's specifications. Samples were electrophoretically separated for 35 minutes at 25° C. and the absorbance at 220 nm was recorded by a photo diode array (PDA) detector. The data were analyzed using 32 Karat Software (SCIEX).

[5] = SPR, 1:1 binding model, read-out: KD human KLB

Substance	Kd [1, 5] [pM]	Kd ([1]; read-out: Affinity SPR KD) [pM]	SPR rel. active fraction ([2]; pH 5, 40° C.) [%]	SPR rel. active fraction ([2]; pH 6, 40° C.) [%]	SPR rel. active fraction ([2]; pH 8, 40° C.) [%]	Charge homogeneity cIEF % main peak [3] [%]	Charge homogeneity cIEF Number of peaks [3]	Charge homogeneity cIEF pI [3]	cIEF % Main peak ([3]; pH 5, 40° C., d 21) [%]	cIEF Number of peaks ([3]; pH 5, 40° C., d 21)	cIEF % Main peak ([3]; pH 5, d 0) [%]	cIEF Number of peaks ([3]; pH 5, d 0)	cIEF % Main peak ([3]; pH 6, 40° C., d 21) [%]	cIEF Number of peaks ([3]; pH 6, 40° C., d 21)	cIEF % Main peak ([3]; pH 6, d 0) [%]	cIEF Number of peaks ([3]; pH 6, d 0)	cIEF % Main peak ([3]; pH 8, 40° C., d 21) [%]	cIEF Number of peaks ([3]; pH 8, 40° C., d 21)	cIEF % Main peak ([3]; pH 8, d 0) [%]	cIEF Number of peaks ([3]; pH 8, d 0)	also measured
Ab0335: IgG4 PE; 16H7 VL (N25S, D49S, D50A, D91E, N93E); 16H7 VH (M34V, I83T, D109E); HC SEQ ID NO: 39, LC SEQ ID NO: 46	158	160	93	92	73	71.4	4	7.1	59	4	70	5	59	4	71	4	12	5	68	5	affinity to human KLB compared to 16H7 [1]: comparable affinity; Homogeneity cGE % Monomer [4]: 79%
Ab0351: IgG4 PE; 16H7 VL (N25S, D49E, D50E, D91E, N93E); 16H7 VH (M34V, I83T, D109E); HC SEQ ID NO: 40, LC SEQ ID NO: 47	248	250	95	92	75	72.6	4	6.7	59	5	72	4	58	4	73	4	15	5	71	4	affinity to human KLB compared to 16H7 [1]: comparable affinity; Homogeneity cGE % Monomer [4]: 83%
Ab0429: IgG1 NNAS; 16H7 VL (N25S, D49S, D50A, D91E, N93E); 16H7 VH (M34V, I83T, D109E); HC SEQ ID NO: 42, LC SEQ ID NO: 49	186	190	94	92	77	21.3	9	7.5-8.5	20	9	21	8	23	8	21	9	9.7	10	21	8	Homogeneity cGE % Monomer [4]: 66%

More lines, main results first:

Kd [1, 5] [pM]	Kd ([1]; read-out: Affinity SPR KD) [pM]	Substance	SPR rel. active fraction ([2]; pH 5, 40° C.) [%]	SPR rel. active fraction ([2]; pH 6, 40° C.) [%]	SPR rel. active fraction ([2]; pH 8, 40° C.) [%]	Charge homogeneity cIEF % main peak [3] [%]	Charge homogeneity cIEF Number of peaks [3]	Charge homogeneity cIEF pI [3]	cIEF % Main peak ([3]; pH 5, 40° C., d 21) [%]	cIEF Number of peaks ([3]; pH 5, 40° C., d 21)	cIEF % Main peak ([3]; pH 5, d 0) [%]	cIEF Number of peaks ([3]; pH 5, d 0)	cIEF % Main peak ([3]; pH 6, 40° C., d 21) [%]	cIEF Number of peaks ([3]; pH 6, 40° C., d 21)	cIEF % Main peak ([3]; pH 6, d 0) [%]	cIEF Number of peaks ([3]; pH 6, d 0)	cIEF % Main peak ([3]; pH 8, 40° C., d 21) [%]	cIEF Number of peaks ([3]; pH 8, 40° C., d 21)	cIEF % Main peak ([3]; pH 8, d 0) [%]	cIEF Number of peaks ([3]; pH 8, d 0)	also measured
206	210	Ab0331: IgG4 PE; 16H7 VL (N25S, D49S, D50E, D91E, N93E); 16H7 VH (M34V, I83T, D109E); HC SEQ ID NO: 38, LC SEQ ID NO: 45	97	91	78	73	5	6.9	59	5	73	5	57	4	73	5	14	6	72	5	affinity to human KLB compared to 16H7 [1]: comparable affinity; Homogeneity cGE % Monomer [4]: 77%
205	210	Ab0428: IgG1 NNAS; 16H7 VL (N25S, D49S, D50E, D91E, N93E); 16H7 VH (M34V, I83T, D109E); HC SEQ ID NO: 41, LC SEQ ID NO: 48	94	93	79	20.4	8	7.3-8.0	15	8	21	8	21	8	20	8	11	9	21	9	Homogeneity cGE % Monomer [4]: 71%
286	290	Ab0430: IgG1 NNAS; 16H7 VL (N25S, D49E, D50E, D91E, N93E); 16H7 VH (M34V, I83T, D109E); HC SEQ ID NO: 43, LC SEQ ID NO: 50	94	92	75	21.7	8	7.2-7.9	21	8	22	9	20	9	22	8	4.4	11	22	9	Homogeneity cGE % Monomer [4]: 62%
